This is an account of results in patent publication US20150273076A1, “SP1 POLYPEPTIDES, MODIFIED SP1 POLYPEPTIDES AND USES THEREOF” (Fulcrum SP Ltd., priority 2006, published 2015).

One series deals with proteinase K or alkalase. Briefly: Protease resistance by SDS PAGE. Format: physicochemical. To be noted: V8 protease, similar with trypsin, subtilysine. As to the method: Protease Susceptibility Examination of SP1—SP1 (10 μg) prepared either in V8 protease digestion buffer (125 mM Tris-HCl, pH 6.8, 10% glycerol, 0.5% SDS) or standard buffer (20 mM Tris-HCl, pH 7.5, 1 mM EDTA, 50 mM NaCl), was boiled for 2 min or not boiled prior the addition of protease (Staphylococcus aureus V8 protease, trypsin, proteinase K, Sigma Chemicals Inc., Israel). Proteases were added to a final concentration of 50 μg/ml (SP1: protease equal to 1:20, w/w). The digestion was performed at 37° C. for 1 hr. The samples were then prepared in SDS sample buffer, and boiled or not before being subjected to 17% tricine-SDS-PAGE.
SP1 is vulnerable to V8 protease or subtilysine (alcalase, Novo Industries) digestion when disassociated to its monomeric form (boiled in 0.5% SDS, or dissolved inclusion bodies). […] When the oligomer-protease mixture was further boiled in SDS sample buffer, only the SP1 monomer was observed and no peptide fragment was detected on the gel. When the same mixture was subjected to SDS-PAGE analysis without boiling, an intact complex was observed. […] Thus, whereas properly folded SP1 protein is protease resistance, unfolded protein, susceptible to protease, can be removed by protease and heat treatment (FIG. 5).

Series [1] can be described thus: Protein melting point by DSC. The class given is physicochemical. As to the method: Differential scanning calorimetry study of SP1 indicates in a Tm of 107° C. for SP1. […] Further, folding and refolding of inclusion bodies including insoluble SP1, and the heat stability of the unfolded proteins indicate that the intact monomer, as well as the oligomer, is heat resistant (FIG. 5).
On the technique in general: In DSC, transitions show as peaks or steps in heat flow.

Turning to “wild type: stress related SP1 protein from aspen (Populus tremula), recombinant, SEQ ID NO:1”, the “digestion of the intact oligomer by protease” value in the series with proteinase K or alkalase is listed as “unable to digest the intact oligomer”. Besides, the Tm in series [1] (Differential scanning calorimetry) is 107 °C; in series [1] (protein melting point by DSC, in °C (unit assumed)) it was 107.
